Results taken from the supplement of paper PMC10724198.
± gives the standard deviation of the averaged measurements.

Test system: Saccharomyces cerevisiae
Experiment: protein stability index of tFT-peptide fusion (C-terminal peptide) (PSI (0-1 scale)); higher = more stable (slower turnover)
Conditions: genetic background: wild type; temperature: 30 C
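Also: PSI is a weighted mean of sequencing reads over stability bins, variants kept only with over 10 reads, mCherry proximal and sfGFP distal, peptide attached via GGGS linker.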

Sequence	protein stability index
RGGAGGRQGCGG	0.746 ± 0.043
RGGARGRQGCGG	0.765 ± 0.034
RGGGAGAVQYRS	0.642 ± 0.014
RGGGGGGIGFPR	0.681 ± 0.066
RGGGGGRVAREC	0.668 ± 0.011
RGGGQAKAPAGD	0.6566 ± 0.0011
RGGWGGYRGGVP	0.757 ± 0.021
RGGWWGYRGGVP	0.718 ± 0.057
RGIFLGVCALDY	0.696 ± 0.0085
RGKGGKKRRKRD	0.648 ± 0.07
RGKKKAKIYREH	0.766 ± 0.13
RGLDNSGVVAGG	0.715 ± 0.025
RGLGGWAECGRW	0.76 ± 0.05
RGLGLVGLGGGG	0.727 ± 0.012
RGLRIRFKKIDK	0.704 ± 0.078
RGNSPPPSSPPL	0.687 ± 0.038
RGPGRTPLGRQL	0.68915 ± 0.00044
RGRRFMRGEVGG	0.6528 ± 0.0055
RGRWGVYISSWV	0.626 ± 0.048
RGSPCPQRAALH	0.7 ± 0.035
RGSQRVVVSLGW	0.726 ± 0.0073
RGVGFMGEGVTW	0.656 ± 0.069
RGVGGAPVWPFV	0.765 ± 0.0093
RGVLVTVNWVSG	0.499 ± 0.038
RGVREVGSAELV	0.731 ± 0.022
RGVVRYVNGSRG	0.568 ± 0.083

Sequence	protein stability index
RGYVSLSEGVAA	0.676 ± 0.058
RHAMNPNTSRVL	0.601 ± 0.042
RHGDRLEHPIPV	0.611 ± 0.031
RHLESERAPLPG	0.688 ± 0.018
RHPEVGAATDGC	0.708 ± 0.068
RHSAQRPRARHP	0.79 ± 0.032
RICRWGSRAVVG	0.685 ± 0.015
RIETHNQKSPGL	0.737 ± 0.0023
RIGRHLATSRRV	0.679 ± 0.0089
RIHQRTSLHKAH	0.609 ± 0.13
RIKKKKNKARDI	0.734 ± 0.035
RIKNMNNNEEKR	0.714 ± 0.2
RIKTRDVSGNYC	0.708 ± 0.026
RILFGALYSSCK	0.6782 ± 0.0062
RILPPPPPPSSR	0.754 ± 0.026
RIPHRTRLARPT	0.6716 ± 0.0064
RIRPPPAPPPPP	0.569 ± 0.019
RITKKRQQIKKR	0.7482 ± 0.0028
RIVLGCSVVLRG	0.615 ± 0.012
RIVLLICPYPVL	0.554 ± 0.056
RIWEVQFRRLSE	0.823 ± 0.074
RKEETINKESRR	0.742 ± 0.032
RKEGRRGRRGAK	0.691 ± 0.069
RKETQKIRKKRI	0.679 ± 0.03
RKGEASRVRWSE	0.668 ± 0.061
RKGRVLIMTYRK	0.682 ± 0.051

Sequence	protein stability index
RKGSVVILGLGL	0.65248 ± 0.0003
RKKFKKQKKKNI	0.703 ± 0.073
RKKGGNSKKGKN	0.774 ± 0.12
RKKHKYNKKNGQ	0.666 ± 0.07
RKKREKKGRRGK	0.668 ± 0.0068
RKKRNKDARQQN	0.679 ± 0.057
RKLAEVNCTVKV	0.664 ± 0.036
RKRASHALTPPC	0.732 ± 0.024
RKRVKRTIYESK	0.635 ± 0.1
RKSPRDTGLQRA	0.706 ± 0.19
RKTPAITSNIQI	0.722 ± 0.027
RKTPIKTKKSAR	0.687 ± 0.09
RLEERTNIKKIK	0.699 ± 0.045
RLELRVPPSFAH	0.715 ± 0.0095
RLFSPLRPLSPP	0.668 ± 0.032
RLFSSSCLPFPP	0.781 ± 0.16
RLGAELGQLRCC	0.66 ± 0.04
RLGGSLQRGKVV	0.734 ± 0.088
RLGNVGVGVGVG	0.616 ± 0.039
RLGRSEVREYAW	0.716 ± 0.024
RLHPPRPLTPPL	0.683 ± 0.0087
RLKFCLSICLAP	0.7321 ± 0.003
RLKKKKKEIKRR	0.721 ± 0.011
RLLHLMCFCSGP	0.644 ± 0.031
RLLPCATPHPDL	0.647 ± 0.015
RLLPVTISSSLS	0.702 ± 0.031

Sequence	protein stability index
RLLYGIYDHGRQ	0.731 ± 0.091
RLMKQKKMKRRK	0.724 ± 0.025
RLPCPLRSRALS	0.626 ± 0.03
RLPHPPARVFSI	0.691 ± 0.011
RLPPLFPPPPPC	0.709 ± 0.038
RLPPPPPPSPHL	0.711 ± 0.054
RLPVRSGAMHGC	0.665 ± 0.011
RLSGHLRLGRLG	0.672 ± 0.086
RLSSCSAPFPLL	0.7194 ± 0.0068
RLTDPHWALIQS	0.839 ± 0.2
RLTKKKKEIKRR	0.717 ± 0.014
RLTLTAKDNEGC	0.733 ± 0.1
RLVDCDLTDKWH	0.696 ± 0.018
RLVSIHDTRESL	0.727 ± 0.012
RLVSPVLPLSRL	0.728 ± 0.031
RLYPVPARPSPS	0.629 ± 0.046
RMEPPLCIISPK	0.6605 ± 0.0065
RNKKKKEKKKVE	0.693 ± 0.038
RNLCHILRHERT	0.708 ± 0.088
RNQTRKTTQKPR	0.661 ± 0.01
RNRVVPITARLT	0.545 ± 0.014
RNTIKMKENKRI	0.643 ± 0.042
RNTKGIIKKKKE	0.702 ± 0.042
RNYEGTKIEEQE	0.7219 ± 0.0047
RNYEKRSIIVCK	0.497 ± 0.031
RNYIVLYYDEGD	0.673 ± 0.074

Sequence	protein stability index
RPAESPPAFYNR	0.774 ± 0.062
RPAGGPSGGEGV	0.689 ± 0.074
RPDTGPPRRNRE	0.715 ± 0.031
RPFVSSAGSQFP	0.808 ± 0.046
RPFYPLVRPRTR	0.798 ± 0.2
RPGAFDNGLTLP	0.682 ± 0.055
RPGGRLLVWVGG	0.55 ± 0.038
RPGPGHYRSIIL	0.669 ± 0.11
RPHPQRANAPGH	0.69373 ± 9.2e-06
RPHTSPPPRHLY	0.61 ± 0.016
RPPAPVFPNFPG	0.708 ± 0.022
RPPAVVHLQPFY	0.7016 ± 0.0064
RPPFPPLPLPPP	0.674 ± 0.088
RPPGLIDSTIQP	0.602 ± 0.034
RPPLLSPSPPPP	0.649 ± 0.014
RPPLSSPPPPPP	0.701 ± 0.017
RPPPLLPARLSL	0.727 ± 0.028
RPPRPAATGVQH	0.683 ± 0.018
RPPSLCSYSICV	0.585 ± 0.0092
RPRKPGLACKHL	0.652 ± 0.034
RPSPPLLLPPAP	0.71822 ± 0.00068
RPSTVPGHGSDT	0.677 ± 0.011
RPSYRFFVRCSP	0.762 ± 0.053
RPTSTHQPASPS	0.684 ± 0.025
RPVVASRQASHS	0.703 ± 0.021
RQEFSGAPPHLI	0.697 ± 0.029

Sequence	protein stability index
RQFRVVGCVCQP	0.686 ± 0.037
RQHYFDVLGEMY	0.7113 ± 0.0027
RQLLAVAELLTF	0.677 ± 0.086
RQRLGLRIIIPS	0.624 ± 0.017
RQRWLSELSKAL	0.712 ± 0.083
RQSGSDFYGRSY	0.663 ± 0.032
RQYARKKKKVRN	0.683 ± 0.025
RRADGASLNNSV	0.697 ± 0.028
RRAHATLPMNEF	0.616 ± 0.015
RRAPTTATPARP	0.826 ± 0.14
RRASTVRVPTCW	0.701 ± 0.019
RRCDKTMSEGFF	0.692 ± 0.078
RRCGTERVKARE	0.766 ± 0.023
RRGYSNCMTLWI	0.702 ± 0.049
RRHLSLCLLPSL	0.685 ± 0.011
RRKTKTYRSWME	0.649 ± 0.035
RRLANMIFFLGG	0.69 ± 0.042
RRLDGDLSPPIR	0.664 ± 0.095
RRLGCDFDTYKK	0.718 ± 0.043
RRLPPSRSAPFP	0.698 ± 0.028
RRLQGKWIWQNH	0.731 ± 0.055
RRMIKNVRRHKV	0.661 ± 0.075
RRPPALDSLRHY	0.661 ± 0.011
RRRENAKENEIK	0.812 ± 0.13
RRRGEGRREKDR	0.677 ± 0.12
RRRREKEKRSQE	0.734 ± 0.14

Sequence	protein stability index
RRRSAFRLIKEK	0.677 ± 0.045
RRTEGKECEGEE	0.707 ± 0.064
RRTRRATKAKKR	0.682 ± 0.058
RRTTTDSPRADR	0.708 ± 0.047
RRVMGRLKNQIK	0.6672 ± 0.0065
RRWIFGEGMSTY	0.723 ± 0.058
RRWWDHGCSGAG	0.672 ± 0.061
RRYLREEDVQEK	0.696 ± 0.049
RSAPPPPPLRLD	0.789 ± 0.062
RSARGRRGWALG	0.712 ± 0.022
RSCGCNGPGRSP	0.749 ± 0.08
RSCPILLLSFPL	0.62297 ± 0.00052
RSFPLRLLSLFV	0.585 ± 0.019
RSGGYPGLLLFN	0.6227 ± 0.0053
RSGRGRRGVGWV	0.655 ± 0.038
RSGSRNYPGFPR	0.764 ± 0.027
RSIFLSRFVIGC	0.682 ± 0.018
RSINTETPSKNE	0.613 ± 0.056
RSIYEFVPIRYV	0.594 ± 0.028
RSPGSVSVGGVV	0.615 ± 0.021
RSPHGLRSRIQR	0.72 ± 0.037
RSPLPFPGASVP	0.747 ± 0.039
RSPRLRSRVRVP	0.639 ± 0.083
RSPSTRHVGLSW	0.6696 ± 0.00085
RSRHRRQDGKKT	0.64 ± 0.029
RSRPPPPLLPSV	0.8206 ± 0.0072

Sequence	protein stability index
RSSECNQLYTHK	0.682 ± 0.065
RSTPALRPVDLE	0.707 ± 0.049
RSTSPCPPTVSP	0.641 ± 0.091
RSTTDNADRILY	0.7299 ± 0.0022
RSVVLPSFLSPH	0.699 ± 0.017
RTDRIVGGNERV	0.661 ± 0.0072
RTFVSLLTSSSH	0.83 ± 0.17
RTGLLLLVQDFR	0.703 ± 0.018
RTGSCSCQRKPE	0.663 ± 0.017
RTHLVRRHGEAR	0.697 ± 0.02
RTKETTTRQKKK	0.708 ± 0.052
RTKNMRRIKEKG	0.688 ± 0.046
RTKVSENLNEKK	0.681 ± 0.032
RTLYAGVVGGNG	0.734 ± 0.086
RTPLPPPRPSTY	0.719 ± 0.049
RTPSHPLPHPHS	0.677 ± 0.12
RTSGRIASLPGP	0.617 ± 0.031
RTSPRMAPLRTH	0.713 ± 0.067
RTTAPPIPLPSP	0.729 ± 0.042
RTTKRKIKIIGI	0.709 ± 0.013
